Results on one molecule are retold here after US20240182526A1 (UNIVERSITY OF SOUTHERN CALIFORNIA, published 2024).

This test deals with T1, SRC, endogenous in mouse splenocytes (mouse, UniProt P05480 2-535).
T1 construct: Detected as pSRC (pY416-SRC antibody) in gp130 co-immunoprecipitates; also called pSRC; c-SRC
Description: co-immunoprecipitation, F814 mouse splenocytes with or without OSM.

B1: gp130 F814 variant of the CRISPR/Cas9 F814 mouse (SEQ ID NO:27 with F812 substitution) (receptor)
chain: QLLEPCGYIYPEFPVVQRGSNFTAICVLKEACLQHYYVNASYIVWKTNHAAVPREQVTVINRTTSSVTFTDVVLPSVQLTCNILSFGQIEQNVYGVTMLSGFPPDKPTNLTCIVNEGKNMLCQWDPGRETYLETNYTLKSEWATEKFPDCQSKHGTSCMVSYMPTYYVNIEVWVEAENALGKVSSESINFDPVDKVKPTPPYNLSVTNSEELSSILKLSWVSSGLGGLLDLKSDIQYRTKDASTWIQVPLEDTMSPRTSFTVQDLKPFTEYVFRIRSIKDSGKGYWSDWSEEASGTTYEDRPSRPPSFWYKTNPSHGQEYRSVRLIWKALPLSEANGKILDYEVILTQSKSVSQTYTVTGTELTVNLTNDRYVASLAARNKVGKSAAAVLTIPSPHVTAAYSVVNLKAFPKDNLLWVEWTPPPKPVSKYILEWCVLSENAPCVEDWQQEDATVNRTHLRGRLLESKCYQITVTPVFATGPGGSESLKAYLKQAAPARGPTVRTKKVGKNEAVLAWDQIPVDDQNGFIRNYSISYRTSVGKEMVVHVDSSHTEYTLSSLSSDTLYMVRMAAYTDEGGKDGPEFTFTTPKFAQGEIEAIVVPVCLAFLLTTLLGVLFCFNKRDLIKKHIWPNVPDPSKSHIAQWSPHTPPRHNFNSKDQMYSDGNFTDVSVVEIEANNKKPCPDDLKSVDLFKKEKVSTEGHSSGIGGSSCMSSSRPSISSNEENESAQSTASTVQYSTVVHSGYRHQVPSVQVFSRSESTQPLLDSEERPEDLQLVDSVDGGDEILPRQPFFKQNCSQPEACPEISHFERSNQVLSGNEEDFVRLKQQQVSDHISQPYGSEQRRLFQEGSTADALGTGADGQMERFESVGMETTIDEEIPKSYLPQTVRQGGYMPQ
notes: Endogenous protein in lysates of F814 mouse splenocytes; also called Y814 mutant; gp130 Y814-deficient
For B1, the binding result is “no binding”.
